This note sets out measurements from PMC8498969, “An Integrated Systems Biology Approach Identifies the Proteasome as A Critical Host Machinery for ZIKV and DENV Replication” (Genomics, Proteomics & Bioinformatics, 2021).

The target in assay [1] is T1, PLEK on the HuProt array (human, UniProt P08567 1-350).
T1 construct: PLEK (pleckstrin), human; array proteins are said to come from full-length genes; source: immobilised on the Human Proteome Microarray v3.0 (HuProt array)
T1 sequence (looked up): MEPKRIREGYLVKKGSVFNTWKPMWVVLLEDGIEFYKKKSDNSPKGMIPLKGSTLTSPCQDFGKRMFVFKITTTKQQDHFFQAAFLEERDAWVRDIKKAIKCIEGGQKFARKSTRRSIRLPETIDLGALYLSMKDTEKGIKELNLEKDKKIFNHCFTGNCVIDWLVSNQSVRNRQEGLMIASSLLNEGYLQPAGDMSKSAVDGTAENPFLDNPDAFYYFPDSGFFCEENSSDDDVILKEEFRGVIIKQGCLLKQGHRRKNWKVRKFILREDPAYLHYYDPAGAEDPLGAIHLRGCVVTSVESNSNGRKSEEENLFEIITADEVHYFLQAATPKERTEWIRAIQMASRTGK
Nature of the assay: peptide or protein array. To be noted: both partners purified.

Assay [2] addresses T2, DDX49 on the HuProt array (human, UniProt Q9Y6V7 1-483).
T2 construct: DDX49, human; array proteins are said to come from full-length genes; source: immobilised on the Human Proteome Microarray v3.0 (HuProt array)
T2 sequence (looked up): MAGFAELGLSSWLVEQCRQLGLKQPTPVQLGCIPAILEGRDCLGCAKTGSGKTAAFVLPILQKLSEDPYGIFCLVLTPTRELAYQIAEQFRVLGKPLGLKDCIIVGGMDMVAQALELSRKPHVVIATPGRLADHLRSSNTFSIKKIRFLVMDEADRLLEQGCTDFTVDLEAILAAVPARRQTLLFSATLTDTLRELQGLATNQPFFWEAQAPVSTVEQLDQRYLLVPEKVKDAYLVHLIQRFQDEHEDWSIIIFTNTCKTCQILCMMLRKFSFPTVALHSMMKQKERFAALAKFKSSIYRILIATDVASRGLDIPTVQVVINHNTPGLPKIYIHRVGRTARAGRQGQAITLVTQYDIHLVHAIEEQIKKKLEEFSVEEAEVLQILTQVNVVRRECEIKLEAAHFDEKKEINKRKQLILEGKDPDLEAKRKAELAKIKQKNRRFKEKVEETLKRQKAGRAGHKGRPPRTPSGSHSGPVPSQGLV
Nature of the assay: peptide or protein array. The note with it: both partners purified.

B1: ZIKV-NS2A, N-terminal GST fusion, Cy5-labelled (natural protein)
chain: GSTDHMDHFSLGVLVILLMVQEGLKKRMTTKIIMSTSMAVLVVMILGGFSMSDLAKLVILMGATFAEMNTGGDVAHLALVAAFKVRPALLVSFIFRANWTPRESMLLALASCLLQTAISALEGDLMVLINGFALAWLAIRAMAVPRTDNIALPILAALTPLARGTLLVAWRAGLATCGGIMLLSLKGKGSVKKNLPFVMALGLTAVRVVDPINVVGLLLLTRSGKR
modifications: Cy5 (NHS-tethered dye), sites not stated
notes: source: yeast (vector pEGH-A), purified on glutathione beads; not shown: GST, N-terminal, kept
For the molecule B1, the binding result in assay [1] is “binds”.

B2: ZIKV-NS4B, N-terminal GST fusion, Cy5-labelled (natural protein)
chain: NELGWLERTKNDIAHLMGRREEGATMGFSMDIDLRPASAWAIYAALTTLITPAVQHAVTTSYNNYSLMAMATQAGVLFGMGKGMPFMHGDLGVPLLMMGCYSQLTPLTLIVAIILLVAHYMYLIPGLQAAAARAAQKRTAAGIMKNPVVDGIVVTDIDTMTIDPQVEKKMGQVLLIAVAISSAVLLRTAWGWGEAGALITAATSTLWEGSPNKYWNSSTATSLCNIFRGSYLAGASLIYTVTRNAGLVKRR
modifications: Cy5 (NHS-tethered dye), sites not stated
notes: also called SN4B; source: yeast (vector pEGH-A), purified on glutathione beads; not shown: GST, N-terminal, kept
With B2, the binding result in assay [2] was “binds”.
